{
  "source": "ChEMBL document CHEMBL1137666",
  "about": "“Biochemical Characterization of SFC-1, a class A carbapenem-hydrolyzing beta-lactamase” (Antimicrob Agents Chemother, 2007)",
  "key": {"[1]": {"biological_target": "Carbapenem-hydrolyzing beta-lactamase KPC (Klebsiella pneumoniae, UniProt Q9F663)", "sequence (Q9F663 whole entry)": "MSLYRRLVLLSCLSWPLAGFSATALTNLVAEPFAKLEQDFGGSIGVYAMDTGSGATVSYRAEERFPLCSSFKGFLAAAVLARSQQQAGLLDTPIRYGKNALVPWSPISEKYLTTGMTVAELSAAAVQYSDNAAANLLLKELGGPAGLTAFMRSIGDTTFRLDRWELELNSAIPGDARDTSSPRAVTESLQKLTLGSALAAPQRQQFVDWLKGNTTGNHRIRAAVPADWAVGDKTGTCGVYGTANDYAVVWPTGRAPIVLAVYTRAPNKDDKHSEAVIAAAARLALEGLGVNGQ", "test": "Inhibition of Klebsiella pneumoniae KPC-1 beta lactamase expressed in Escherichia coli DH5alpha by SDS-PAGE"}, "[2]": {"substrate": "CC(=O)OCC1=C(C(=O)O)N2C(=O)[C@@H](NC(=O)Cc3cccs3)[C@H]2SC1", "conditions": "Enterobacter cloacae", "description": "(§1) Ratio of Kcat to Km for Enterobacter cloacae IMI1 beta lactamase Escherichia coli DH5alpha by SDS-PAGE"}, "[3]": {"substrate": "C[C@H]1[C@H](NC(=O)/C(=N\\OC(C)(C)C(=O)O)c2csc(N)n2)C(=O)N1S(=O)(=O)O", "conditions": "Enterobacter cloacae", "description": "as §1"}, "[4]": {"substrate": "C[C@@H](O)[C@H]1C(=O)N2C(C(=O)O)=C(SCCNC=N)C[C@H]12", "conditions": "Enterobacter cloacae", "description": "as §1"}, "[5]": {"substrate": "CC1(C)S[C@@H]2[C@H](NC(=O)[C@H](N)c3ccccc3)C(=O)N2[C@H]1C(=O)O", "conditions": "Enterobacter cloacae", "description": "as §1"}, "[6]": {"substrate": "CC(C)(O/N=C(\\C(=O)N[C@@H]1C(=O)N2C(C(=O)[O-])=C(C[n+]3ccccc3)CS[C@H]12)c1csc(N)n1)C(=O)O", "conditions": "Enterobacter cloacae", "description": "as §1"}, "[7]": {"substrate": "CO[C@@]1(NC(=O)Cc2cccs2)C(=O)N2C(C(=O)O)=C(COC(N)=O)CS[C@@H]21", "conditions": "Enterobacter cloacae", "description": "as §1"}, "[8]": {"substrate": "CO/N=C(\\C(=O)N[C@@H]1C(=O)N2C(C(=O)O)=C(COC(C)=O)CS[C@H]12)c1csc(N)n1", "conditions": "Enterobacter cloacae", "description": "as §1"}, "[9]": {"substrate": "C[C@@H](O)[C@H]1C(=O)N2C(C(=O)O)=C(S[C@@H]3CN[C@H](C(=O)N(C)C)C3)[C@H](C)[C@H]12", "conditions": "Enterobacter cloacae", "description": "as §1"}, "[10]": {"substrate": "CCN1CCN(C(=O)N[C@@H](C(=O)N[C@@H]2C(=O)N3[C@@H]2SC(C)(C)[C@@H]3C(=O)O)c2ccccc2)C(=O)C1=O", "conditions": "Enterobacter cloacae", "description": "as §1"}, "[11]": {"substrate": "CC(=O)OCC1=C(C(=O)O)N2C(=O)[C@@H](NC(=O)Cc3cccs3)[C@H]2SC1", "conditions": "Enterobacter cloacae", "remark": "listed apart in the source", "description": "(§2) Activity of Enterobacter cloacae IMI1 beta lactamase expressed in Escherichia coli DH5alpha by SDS-PAGE"}, "[12]": {"substrate": "C[C@H]1[C@H](NC(=O)/C(=N\\OC(C)(C)C(=O)O)c2csc(N)n2)C(=O)N1S(=O)(=O)O", "conditions": "Enterobacter cloacae", "remark": "listed apart in the source", "description": "as §2"}, "[13]": {"substrate": "C[C@@H](O)[C@H]1C(=O)N2C(C(=O)O)=C(SCCNC=N)C[C@H]12", "conditions": "Enterobacter cloacae", "remark": "listed apart in the source", "description": "as §2"}, "[14]": {"substrate": "CC1(C)S[C@@H]2[C@H](NC(=O)[C@H](N)c3ccccc3)C(=O)N2[C@H]1C(=O)O", "conditions": "Enterobacter cloacae", "remark": "listed apart in the source", "description": "as §2"}, "[15]": {"substrate": "CC(C)(O/N=C(\\C(=O)N[C@@H]1C(=O)N2C(C(=O)[O-])=C(C[n+]3ccccc3)CS[C@H]12)c1csc(N)n1)C(=O)O", "conditions": "Enterobacter cloacae", "remark": "listed apart in the source", "description": "as §2"}, "[16]": {"substrate": "CO[C@@]1(NC(=O)Cc2cccs2)C(=O)N2C(C(=O)O)=C(COC(N)=O)CS[C@@H]21", "conditions": "Enterobacter cloacae", "remark": "listed apart in the source", "description": "as §2"}, "[17]": {"substrate": "CO/N=C(\\C(=O)N[C@@H]1C(=O)N2C(C(=O)O)=C(COC(C)=O)CS[C@H]12)c1csc(N)n1", "conditions": "Enterobacter cloacae", "remark": "listed apart in the source", "description": "as §2"}, "[18]": {"substrate": "C[C@@H](O)[C@H]1C(=O)N2C(C(=O)O)=C(S[C@@H]3CN[C@H](C(=O)N(C)C)C3)[C@H](C)[C@H]12", "conditions": "Enterobacter cloacae", "remark": "listed apart in the source", "description": "as §2"}, "[19]": {"substrate": "CCN1CCN(C(=O)N[C@@H](C(=O)N[C@@H]2C(=O)N3[C@@H]2SC(C)(C)[C@@H]3C(=O)O)c2ccccc2)C(=O)C1=O", "conditions": "Enterobacter cloacae", "remark": "listed apart in the source", "description": "as §2"}},
  "data": [
    {"molecule": "C[C@]1(Cn2ccnn2)[C@H](C(=O)O)N2C(=O)C[C@H]2S1(=O)=O", "note": "[TAZOBACTAM]", "values": [
      {"measurement": "IC50", "setting": "[1]", "result": 374, "unit": "nM"}
    ]},
    {"molecule": "IMI-1 (Enterobacter cloacae), Q46991 (protein) MSLNVKPSRIAILFSSCLVSISFFSQANTKGIDEIKDLETDFNGRIGVYALDTGSGKSFSYKANERFPLCSSFKGFLAAAVLKGSQDNQLNLNQIVNYNTRSLEFHSPITTKYKDNGMSLGDMAAAALQYSDNGATNIILERYIGGPEGMTKFMRSIGDKDFRLDRWELDLNTAIPGDERDTSTPAAVAKSLKTLALGNILNEREKETYQTWLKGNTTGAARIRASVPSDWVVGDKTGSCGAYGTANDYAVVWPKNRAPLIISVYTTKNEKEAKHEDKVIAEASRIAIDNLK", "values": [
      {"measurement": "kcat/Km", "setting": "[2]", "result": 920000, "unit": "M⁻¹ s⁻¹"},
      {"measurement": "kcat/Km", "setting": "[3]", "result": 550000, "unit": "M⁻¹ s⁻¹"},
      {"measurement": "kcat/Km", "setting": "[4]", "result": 520000, "unit": "M⁻¹ s⁻¹"},
      {"measurement": "kcat/Km", "setting": "[5]", "result": 240000, "unit": "M⁻¹ s⁻¹"},
      {"measurement": "kcat/Km", "setting": "[6]", "result": 24, "unit": "M⁻¹ s⁻¹"},
      {"measurement": "kcat/Km", "setting": "[7]", "result": 6700, "unit": "M⁻¹ s⁻¹"},
      {"measurement": "kcat/Km", "setting": "[8]", "result": 18000, "unit": "M⁻¹ s⁻¹"},
      {"measurement": "kcat/Km", "setting": "[9]", "result": 380000, "unit": "M⁻¹ s⁻¹"},
      {"measurement": "kcat/Km", "setting": "[10]", "result": 470000, "unit": "M⁻¹ s⁻¹"},
      {"measurement": "Km", "setting": "[11]", "result": 130, "unit": "µM"},
      {"measurement": "kcat", "setting": "[11]", "result": 120, "unit": "s⁻¹"},
      {"measurement": "Km", "setting": "[12]", "result": 93, "unit": "µM"},
      {"measurement": "kcat", "setting": "[12]", "result": 51, "unit": "s⁻¹"},
      {"measurement": "Km", "setting": "[13]", "result": 170, "unit": "µM"},
      {"measurement": "kcat", "setting": "[13]", "result": 89, "unit": "s⁻¹"},
      {"measurement": "Km", "setting": "[14]", "result": 780, "unit": "µM"},
      {"measurement": "kcat", "setting": "[14]", "result": 190, "unit": "s⁻¹"},
      {"measurement": "Km", "setting": "[15]", "result": 270, "unit": "µM"},
      {"measurement": "kcat", "setting": "[15]", "result": 0.0068, "unit": "s⁻¹"},
      {"measurement": "Km", "setting": "[16]", "result": 45, "unit": "µM"},
      {"measurement": "kcat", "setting": "[16]", "result": 0.3, "unit": "s⁻¹"},
      {"measurement": "Km", "setting": "[17]", "result": 190, "unit": "µM"},
      {"measurement": "kcat", "setting": "[17]", "result": 3.4, "unit": "s⁻¹"},
      {"measurement": "Km", "setting": "[18]", "result": 26, "unit": "µM"},
      {"measurement": "kcat", "setting": "[18]", "result": 10, "unit": "s⁻¹"},
      {"measurement": "Km", "setting": "[19]", "result": 13, "unit": "µM"},
      {"measurement": "kcat", "setting": "[19]", "result": 6.1, "unit": "s⁻¹"}
    ]}
  ]
}
